Reference: the supplement of paper PMC9233669
This sample holds only a part of the variants without activity.

Key:
[1] = tested on: biotinyl-Leu-oxazolone; test: self-aminoacylation, catalytic enhancement (BLO) (fold over background); higher = more active; k-Seq, kA / k0A0; sequences stand for … in GGGAAUGGAUCCACAUCUACGAAUUC…UUCACUGCAGACUUGACGAAGCUG
How it was run: (§1)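 Mutagenized RNA pools with a 21-nt variable region (0.43 μM) reacted with each biotinyl-aminoacyl-oxazolone at 2–1250 μM. Reactions ran in 50 μL HEPES/NaCl/KCl/MgCl2/CaCl2 buffer with 5% acetonitrile, pH 6.9–7.0, for 90 minutes at room temperature. Streptavidin-captured RNA was quantified by triplicate qPCR and Illumina sequencing, and per-sequence fraction reacted was fit to a pseudo-first-order model with 1000 bootstraps. Catalytic enhancement is median kA divided by the uncatalyzed rate, the low-activity peak of a bimodal Gaussian fit.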

[2] = tested on: biotinyl-Trp-oxazolone; test: self-aminoacylation, catalytic enhancement (BWO) (fold over background); higher = more active; k-Seq, kA / k0A0; sequences stand for … in GGGAAUGGAUCCACAUCUACGAAUUC…UUCACUGCAGACUUGACGAAGCUG
How it was run: as §1

[3] = tested on: biotinyl-Val-oxazolone; test: self-aminoacylation, catalytic enhancement (BVO) (fold over background); higher = more active; k-Seq, kA / k0A0; sequences stand for … in GGGAAUGGAUCCACAUCUACGAAUUC…UUCACUGCAGACUUGACGAAGCUG
How it was run: as §1

[4] = tested on: biotinyl-Phe-oxazolone; test: self-aminoacylation, catalytic enhancement (BFO) (fold over background); higher = more active; k-Seq, kA / k0A0; sequences stand for … in GGGAAUGGAUCCACAUCUACGAAUUC…UUCACUGCAGACUUGACGAAGCUG
How it was run: as §1

[5] = tested on: biotinyl-Met-oxazolone; test: self-aminoacylation, catalytic enhancement (BMO) (fold over background); higher = more active; k-Seq, kA / k0A0; sequences stand for … in GGGAAUGGAUCCACAUCUACGAAUUC…UUCACUGCAGACUUGACGAAGCUG
How it was run: as §1

[6] = tested on: biotinyl-Ile-oxazolone; test: self-aminoacylation, catalytic enhancement (BIO) (fold over background); higher = more active; k-Seq, kA / k0A0; sequences stand for … in GGGAAUGGAUCCACAUCUACGAAUUC…UUCACUGCAGACUUGACGAAGCUG
How it was run: as §1

| Sequence | self-aminoacylation [1] | self-aminoacylation [2] | self-aminoacylation [3] | self-aminoacylation [4] | self-aminoacylation [5] | self-aminoacylation [6] |
| --- | --- | --- | --- | --- | --- | --- |
| AUUCACCUAGGUCGACGGGUG [Fam2.2 aminoacylation ribozyme variant] | 3.27 | 2.19 | 1.87 | 13.3 | 2.93 | 1.88 |
| AUUCACCUAGGUCGGCGGGUG [Fam2.2 aminoacylation ribozyme variant] | 8.86 | 6.02 | 5.49 | 41.6 | 6.63 | 4.39 |
| AUUCACCUAGGUCGUCGGAUG [Fam2.2 aminoacylation ribozyme variant] | 0.929 | 0.507 | 1.12 | 0.37 | 0.982 | 0.909 |
| AUUCACCUAGGUCUCCGGGUG [Fam2.2 aminoacylation ribozyme variant] | 9.35 | 8.48 | 4.49 | 47.5 | 7.84 | 4.71 |
| AUUCACCUAGGUCUUCGGGUG [Fam2.2 aminoacylation ribozyme variant] | 5.48 | 4.38 | 3.71 | 27.4 | 4.46 | 3.33 |
| AUUCACCUAGGUCUUCGGUUG [Fam2.2 aminoacylation ribozyme variant] | 1.75 | 1.72 | 1.41 | 9.48 | 1.76 | 1.55 |
| AUUCACCUAGGUCUUCUGGUG [Fam2.2 aminoacylation ribozyme variant] | 9.28 | 5.92 | 3.86 | 58.1 | 6.75 | 3.9 |
| AUUCACCUAGGUGAUCCGGUG [Fam2.2 aminoacylation ribozyme variant] | 4.06 | 3.31 | 3.03 | 22.1 | 5.12 | 3.26 |
| AUUCACCUAGGUGAUCUGGUG [Fam2.2 aminoacylation ribozyme variant] | 2.36 | 1.84 | 1.47 | 7.54 | 1.99 | 1.34 |
| AUUCACCUAGGUUAUAGGGUG [Fam2.2 aminoacylation ribozyme variant] | 4 | 3.5 | 2.11 | 14.1 | 3.65 | 2.23 |
| AUUCACCUAGGUUAUCCGGUG [Fam2.2 aminoacylation ribozyme variant] | 8.66 | 5.66 | 3.77 | 42.3 | 7.05 | 3.8 |
| AUUCACCUAGGUUAUCGAGUG [Fam2.2 aminoacylation ribozyme variant] | 2.35 | 1.89 | 1.42 | 2.32 | 1.97 | 1.4 |
| AUUCACCUAGGUUAUUGGGUG [Fam2.2 aminoacylation ribozyme variant] | 7.19 | 6.1 | 3.15 | 45 | 5.84 | 3.48 |
| AUUCACCUAGGUUCUCGGGUG [Fam2.2 aminoacylation ribozyme variant] | 3.18 | 2.44 | 2.68 | 20.4 | 2.88 | 2.63 |
| AUUCACCUAGUUCAGCGGGUG [Fam2.2 aminoacylation ribozyme variant] | 3.34 | 2.62 | 2.28 | 15.9 | 2.76 | 2.07 |
| AUUCACCUAGUUCAUCGGCUG [Fam2.2 aminoacylation ribozyme variant] | 1.57 | 1.03 | 1.55 | 4.73 | 1.27 | 1.36 |
| AUUCACCUAGUUCAUGGGGUG [Fam2.2 aminoacylation ribozyme variant] | 10.6 | 7.05 | 4.43 | 66 | 8.55 | 4.31 |
| AUUCACCUAUGACAUCGGGUG [Fam2.2 aminoacylation ribozyme variant] | 3.63 | 3.44 | 1.73 | 22.3 | 3.24 | 2.25 |
| AUUCACCUAUGUCAUCCGGUG [Fam2.2 aminoacylation ribozyme variant] | 7.19 | 5.69 | 3.51 | 37.6 | 5.26 | 3.78 |
| AUUCACCUAUGUCAUCGCGUG [Fam2.2 aminoacylation ribozyme variant] | 10.4 | 7.34 | 4.89 | 65.3 | 8.26 | 4.86 |
| AUUCACCUAUGUCAUCGGAUG [Fam2.2 aminoacylation ribozyme variant] | 0.606 | 0.502 | 0.758 | 0.61 | 0.581 | 0.826 |
| AUUCACCUAUGUCAUCGGGCG [Fam2.2 aminoacylation ribozyme variant] | 2.87 | 2.2 | 2.13 | 10.4 | 2.79 | 2.22 |
| AUUCACCUAUGUCAUCGGGUG [Fam2.2 aminoacylation ribozyme variant] | 7.41 | 5.45 | 3.48 | 36.7 | 5.41 | 3.61 |
| AUUCACCUCGGGCAUCGGGUG [Fam2.2 aminoacylation ribozyme variant] | 6.03 | 5.56 | 5.1 | 34.5 | 5.94 | 3.71 |
| AUUCACCUCGGUCAUCGGAUG [Fam2.2 aminoacylation ribozyme variant] | 0.794 | 0.751 | 1 | 0.352 | 0.789 | 0.927 |
